In the assay the target is V5-HSP70 (UniProt P0DMV8). As to the kind of experiment: co-IP.
UniProt P0DMV8, sequence (P0DMV8 whole entry): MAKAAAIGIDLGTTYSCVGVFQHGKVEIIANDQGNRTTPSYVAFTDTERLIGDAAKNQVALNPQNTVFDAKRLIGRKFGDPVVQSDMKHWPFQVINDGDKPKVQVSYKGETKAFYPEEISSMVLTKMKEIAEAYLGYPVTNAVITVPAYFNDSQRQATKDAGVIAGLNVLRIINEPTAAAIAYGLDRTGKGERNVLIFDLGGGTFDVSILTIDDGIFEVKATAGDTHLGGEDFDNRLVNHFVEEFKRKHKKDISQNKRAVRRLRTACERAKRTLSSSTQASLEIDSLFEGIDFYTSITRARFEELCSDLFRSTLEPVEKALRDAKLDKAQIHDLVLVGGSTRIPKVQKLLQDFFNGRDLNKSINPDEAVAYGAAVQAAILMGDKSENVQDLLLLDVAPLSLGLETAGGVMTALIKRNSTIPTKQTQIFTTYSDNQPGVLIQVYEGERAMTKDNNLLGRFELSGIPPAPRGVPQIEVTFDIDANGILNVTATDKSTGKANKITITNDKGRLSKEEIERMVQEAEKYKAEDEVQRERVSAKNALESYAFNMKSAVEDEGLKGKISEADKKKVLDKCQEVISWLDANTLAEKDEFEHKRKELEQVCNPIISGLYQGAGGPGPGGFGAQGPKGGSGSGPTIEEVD

For the substance “BAG3 with L462P mutation (pCDH-L462P BAG3) (from UniProt O95817 1-575) (natural protein)”, the decrease of the association relative to WT BAG3 was more than 50%.

Source of the values: paper PMC9085972.
